Assay [1] has as its target T1, DL3W35, extracellular domain of human DLL3 linked to a C-terminal 6xHis-Tag and a linker (human, UniProt Q9NYJ7 27-479).
T1 construct: also called human DLL3 ECD; huDLL3
T1 sequence: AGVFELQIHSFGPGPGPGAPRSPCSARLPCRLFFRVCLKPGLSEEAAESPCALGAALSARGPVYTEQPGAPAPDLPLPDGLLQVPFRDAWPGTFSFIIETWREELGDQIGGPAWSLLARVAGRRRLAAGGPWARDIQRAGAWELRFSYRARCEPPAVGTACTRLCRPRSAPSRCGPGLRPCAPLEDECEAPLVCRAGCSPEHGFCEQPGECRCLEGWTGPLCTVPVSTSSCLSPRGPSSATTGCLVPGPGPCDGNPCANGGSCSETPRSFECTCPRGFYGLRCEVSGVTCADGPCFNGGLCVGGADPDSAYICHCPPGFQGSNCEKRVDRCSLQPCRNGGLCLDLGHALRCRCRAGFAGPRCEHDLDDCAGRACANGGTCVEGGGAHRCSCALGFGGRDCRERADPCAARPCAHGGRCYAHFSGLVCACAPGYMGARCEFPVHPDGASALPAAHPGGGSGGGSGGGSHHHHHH
In words: SPR (ProteOn), antibody captured by anti-Fc, DLL3 (DL3W35) titrated.

The target of assay [2] is T2, DL3W34, human DLL4 ECD (Ser27-Pro524), C-10xHis (human, UniProt Q9NR61 27-524).
T2 construct: also called huDLL4; TPP0000494661
Briefly: SPR (ProteOn), antibody captured by anti-Fc; DLL4 at 100 nM and 1000 nM.

In assay [3] the target is T3, DL3W33, Recombinant Human DLL1 ECD (Ser22-Gly540), -DI-C-6xHis (human, UniProt O00548 22-540).
T3 construct: also called huDLL1; TPP000049465
T3 sequence: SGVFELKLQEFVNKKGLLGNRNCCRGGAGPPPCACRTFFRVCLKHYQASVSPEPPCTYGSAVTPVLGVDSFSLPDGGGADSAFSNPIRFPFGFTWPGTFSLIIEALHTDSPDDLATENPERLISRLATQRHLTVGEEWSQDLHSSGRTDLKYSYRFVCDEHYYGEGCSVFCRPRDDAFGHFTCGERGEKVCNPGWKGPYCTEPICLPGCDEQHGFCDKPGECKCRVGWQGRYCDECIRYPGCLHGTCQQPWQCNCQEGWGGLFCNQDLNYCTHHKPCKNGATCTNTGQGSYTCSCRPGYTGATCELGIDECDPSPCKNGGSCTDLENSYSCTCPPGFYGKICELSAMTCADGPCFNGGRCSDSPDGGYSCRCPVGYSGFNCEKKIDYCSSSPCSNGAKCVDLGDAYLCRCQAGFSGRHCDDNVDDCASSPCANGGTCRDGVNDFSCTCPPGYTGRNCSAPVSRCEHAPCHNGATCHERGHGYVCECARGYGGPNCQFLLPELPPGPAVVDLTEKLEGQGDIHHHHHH
Briefly: SPR (ProteOn), antibody captured by anti-Fc; DLL1 at 100 nM and 1000 nM.

Assay [4] addresses T4, DL3W37, human DLL3 EGF6 domain, HSA Fusion and C-term 6His tag (human).
T4 construct: Fusion with the C34S variant of human serum albumin at the C-terminus of the DLL3 subdomain, plus 6xHis
Briefly: MSD plate binding assay on coated DLL3 domain-HSA fusions.

Assay [5] has as its target T5, recombinant human DLL3 (Example 9, construct not named) (human, UniProt Q9NYJ7 27-492, limits assumed).
T5 construct: also called DLL3 antigen
T5 sequence: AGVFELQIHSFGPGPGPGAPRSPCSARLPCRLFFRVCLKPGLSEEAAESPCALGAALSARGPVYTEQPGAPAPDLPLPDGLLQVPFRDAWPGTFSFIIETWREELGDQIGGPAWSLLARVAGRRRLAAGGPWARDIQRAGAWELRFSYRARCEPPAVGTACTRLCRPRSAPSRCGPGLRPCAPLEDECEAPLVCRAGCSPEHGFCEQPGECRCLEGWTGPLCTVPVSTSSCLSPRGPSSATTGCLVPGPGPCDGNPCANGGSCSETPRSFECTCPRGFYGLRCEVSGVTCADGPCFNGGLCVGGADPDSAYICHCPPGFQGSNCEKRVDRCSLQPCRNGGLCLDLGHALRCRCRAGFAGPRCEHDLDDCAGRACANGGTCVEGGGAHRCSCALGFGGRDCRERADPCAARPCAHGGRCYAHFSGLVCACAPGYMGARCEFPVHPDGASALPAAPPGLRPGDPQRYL
Briefly: SPR (Biacore T200), antibody captured by goat anti-Fc on a C1 chip, DLL3 titrated.

In assay [6] the target is T6, human DLL3 on DLL3+ tumor cells (human, UniProt Q9NYJ7 27-618).
T6 sequence: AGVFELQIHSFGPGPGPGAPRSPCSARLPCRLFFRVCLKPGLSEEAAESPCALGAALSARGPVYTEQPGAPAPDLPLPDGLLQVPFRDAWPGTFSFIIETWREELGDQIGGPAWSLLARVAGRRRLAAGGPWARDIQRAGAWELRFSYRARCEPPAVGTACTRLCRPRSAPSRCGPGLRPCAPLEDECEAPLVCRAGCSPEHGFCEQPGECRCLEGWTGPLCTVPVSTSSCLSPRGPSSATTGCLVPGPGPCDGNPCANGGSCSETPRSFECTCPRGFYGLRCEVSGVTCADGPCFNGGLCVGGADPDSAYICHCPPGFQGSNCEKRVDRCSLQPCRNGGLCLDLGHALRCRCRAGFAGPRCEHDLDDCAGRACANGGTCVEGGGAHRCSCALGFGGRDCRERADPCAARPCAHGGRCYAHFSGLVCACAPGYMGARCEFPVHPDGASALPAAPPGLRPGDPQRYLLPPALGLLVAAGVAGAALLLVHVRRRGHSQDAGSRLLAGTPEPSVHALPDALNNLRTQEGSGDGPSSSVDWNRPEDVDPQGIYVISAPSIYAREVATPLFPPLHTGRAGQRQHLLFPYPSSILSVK
In words: cell-based or functional assay.

T2 sequence (Q9NR61 other isoform, or with tags, fused parts or gaps limits assumed): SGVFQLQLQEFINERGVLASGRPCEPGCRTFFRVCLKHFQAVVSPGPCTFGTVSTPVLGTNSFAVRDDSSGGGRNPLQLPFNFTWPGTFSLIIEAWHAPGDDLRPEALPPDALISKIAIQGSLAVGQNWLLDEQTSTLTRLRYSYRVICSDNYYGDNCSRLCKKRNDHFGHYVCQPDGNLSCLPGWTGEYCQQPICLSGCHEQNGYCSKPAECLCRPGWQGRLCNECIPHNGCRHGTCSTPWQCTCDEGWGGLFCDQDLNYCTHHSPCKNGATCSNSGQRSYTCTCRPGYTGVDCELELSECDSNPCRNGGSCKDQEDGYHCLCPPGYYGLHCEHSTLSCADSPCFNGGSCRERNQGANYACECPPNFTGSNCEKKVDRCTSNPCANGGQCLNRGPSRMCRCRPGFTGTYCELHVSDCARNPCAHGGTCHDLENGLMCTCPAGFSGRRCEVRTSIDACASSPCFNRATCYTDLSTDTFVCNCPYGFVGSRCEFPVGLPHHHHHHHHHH
T4 sequence (chain, as listed by the source limits assumed): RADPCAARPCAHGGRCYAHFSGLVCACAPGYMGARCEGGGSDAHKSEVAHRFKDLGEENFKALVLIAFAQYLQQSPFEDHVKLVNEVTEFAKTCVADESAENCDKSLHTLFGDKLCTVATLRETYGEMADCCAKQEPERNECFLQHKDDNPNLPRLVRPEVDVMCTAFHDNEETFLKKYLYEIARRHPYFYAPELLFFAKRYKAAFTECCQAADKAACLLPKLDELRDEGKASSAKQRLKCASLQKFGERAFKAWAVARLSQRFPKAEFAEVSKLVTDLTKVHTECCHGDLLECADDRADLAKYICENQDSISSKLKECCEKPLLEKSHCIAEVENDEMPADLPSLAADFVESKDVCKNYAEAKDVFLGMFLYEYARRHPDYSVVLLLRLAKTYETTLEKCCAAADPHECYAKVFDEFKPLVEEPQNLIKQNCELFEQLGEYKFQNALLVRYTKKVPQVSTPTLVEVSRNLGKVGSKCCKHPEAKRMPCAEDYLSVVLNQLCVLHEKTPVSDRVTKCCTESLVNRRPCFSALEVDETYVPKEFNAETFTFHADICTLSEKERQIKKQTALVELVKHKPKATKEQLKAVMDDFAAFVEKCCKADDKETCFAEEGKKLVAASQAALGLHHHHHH

B1: DL3B569 (Fc fusion)
scFv: DIQMTQSPSSLSASVGDRVTITCRASQGISNYLAWFQQKPGKAPKSLIYAASSLQSGVPSKFSGSGSGTDFTLTISSLQPEDFATYYCQQYNSYPYTFAQGTKLEIKGGSEGKSSGSGSESKSTGGSQVQLVQSGAEVKKPGASVKVSCKASGNTFTNYYIHWVRQAPGQGLEWMGIINPSGGSTSYAQKLQGRMTMTRDTSTSTVYMELSSLRSEDTAVYFCARQGPFIGDAFDIWGQGTMVTVSS
notes: The conflict is not resolved; also called DL3B279 scFv-Fc; not shown: wild-type IgG1 Fc domain
As for B1, in assay [1], the Kd came out at 0.147 nM. The binding result in assay [2] is listed as “no binding (tested: 1000 nM)”; in assay [3], “no binding (tested: 1000 nM)”; in assay [4] it was “binds”.

B2: DL3B570 (Fc fusion)
scFv: EIVLTQSPGTLSLSPGERATLSCRASQSVSRSYLAWYQQKPGQAPRFLIYGASSRATGIPDRFSGSGSGTDFTLTISRLEPEDFAVYYCQQYGTSPITFGQGTRLEIKGGSEGKSSGSGSESKSTGGSQVQLQESGPGLVKPSETLSLSCTVSGDSIRSYYWSWIRQPPGKGLEWIGYIYYSGTTNYKSSLKSRVTISLDTSKKQFSLNLDSVTAADTAVYYCARIGPAGFYFDYWGQGTLVTVSS
notes: also called DL3B332 scFv-Fc; not shown: wild-type IgG1 Fc domain
The molecule B2 had a Kd in assay [1] of 0.0668 nM. For the same molecule, the binding result in assay [2] is given as “no binding (tested: 1000 nM)”; in assay [3] it was “no binding (tested: 1000 nM)”; in assay [4], “binds”.

B3: DL3B571 (Fc fusion)
scFv: EIVLTQSPGTLSLSPGERATLSCRASQSASSYLAWYQQKPGQAPRLLIYGASSRATGIPDRFSGSGSGTDFTLTISRLEPEDFAVYYCQQYNSSPYTFGQGTKLEIKGGSEGKSSGSGSESKSTGGSQVQLVQSGAEVKKPGASVKVSCKASGHIFISYYIHWVRQAPGQGLEWMGIIDPSGGSKSYAQKFQGRVTMTRDTSTSTVYMELSSLRSEDTAVYYCARQGMIVGTTGDAFDIWGQGTMVTVSS
notes: also called DL3B358 scFv-Fc; not shown: wild-type IgG1 Fc domain
Take B3: the Kd in assay [1] was 0.0734 nM. The binding result in assay [2] is “no binding (tested: 1000 nM)”; in assay [3], “no binding (tested: 1000 nM)”; in assay [4], “binds”.

B4: DL3B582 (bispecific antibody)
heavy: QVQLVQSGAEVKKPGASVKVSCKASGNTFTNYYIHWVRQAPGQGLEWMGIINPSGGSTSYAQKLQGRMTMTRDTSTSTVYMELSSLRSEDTAVYFCARQGPFIGDAFDIWGQGTMVTVSSASTKGPSVFPLAPSSKSTSGGTAALGCLVKDYFPEPVTVSWNSGALTSGVHTFPAVLQSSGLYSLSSVVTVPSSSLGTQTYICNVNHKPSNTKVDKKVEPKSCDKTHTCPPCPAPEAAGGPSVFLFPPKPKDTLMISRTPEVTCVVVSVSHEDPEVKFNWYVDGVEVHNAKTKPREEQYNSTYRVVSVLTVLHQDWLNGKEYKCKVSNKALPAPIEKTISKAKGQPREPQVYVLPPSREEMTKNQVSLLCLVKGFYPSDIAVEWESNGQPENNYLTWPPVLDSDGSFFLYSKLTVDKSRWQQGNVFSCSVMHEALHNHYTQKSLSLSPG
light: DIQMTQSPSSLSASVGDRVTITCRASQGISNYLAWFQQKPGKAPKSLIYAASSLQSGVPSKFSGSGSGTDFTLTISSLQPEDFATYYCQQYNSYPYTFAQGTKLEIKRTVAAPSVFIFPPSDEQLKSGTASVVCLLNNFYPREAKVQWKVDNALQSGNSQESVTEQDSKDSTYSLSSTLTLSKADYEKHKVYACEVTHQGLSSPVTKSFNRGEC
scFv: DIQMTQSPSSLSASVGDRVTITCRARQSIGTAIHWYQQKPGKAPKLLIKYASESISGVPSRFSGSGSGTDFTLTISSLQPEDFATYYCQQSGSWPYTFGQGTKLEIKGGSEGKSSGSGSESKSTGGSEVQLVESGGGLVKPGGSLRLSCAASGFTFSRYNMNWVRQAPGKGLEWVSSISTSSNYIYYADSVKGRFTFSRDNAKNSLDLQMSGLRAEDTAIYYCTRGWGPFDYWGQGTLVTVSSEPKSSDKTHTCPPCPAPEAAGGPSVFLFPPKPKDTLMISRTPEVTCVVVSVSHEDPEVKFNWYVDGVEVHNAKTKPREEQYNSTYRVVSVLTVLHQDWLNGKEYKCKVSNKALPAPIEKTISKAKGQPREPQVYVYPPSREEMTKNQVSLTCLVKGFYPSDIAVEWESNGQPENNYKTTPPVLDSDGSFALVSKLTVDKSRWQQGNVFSCSVMHEALHNHYTQKSLSLSPG
notes: DLL3 arm: DL3B279-Fab-Fc; CD3 arm: CD3W245-LH-scFv-Fc; IgG1 with L234A/L235A/D265S and heterodimerization mutations; also called CD3W245-LH-scFv; DL3B279-Fab
For B4, in assay [5], the Kd was 0.016 nM. In assay [6], the “Cytotoxicity (% Lysis), G361, whole PBMCs, 1:1 ET ratio, 30 nM” value was found to be 98.9%; the “Cytotoxicity (% Lysis), HCC1833, whole PBMCs, 1:1 ET ratio, 30 nM” value was determined as 93.7%; the “Cytotoxicity (% Lysis), SHP-77, whole PBMCs, 1:1 ET ratio, 30 nM” value is 87.3%.

B5: DL3B583 (bispecific antibody)
heavy: B4 heavy
light: B4 light
scFv: EVQLVESGGGLVKPGGSLRLSCAASGFTFSRYNMNWVRQAPGKGLEWVSSISTSSNYIYYADSVKGRFTFSRDNAKNSLDLQMSGLRAEDTAIYYCTRGWGPFDYWGQGTLVTVSSGGSEGKSSGSGSESKSTGGSDIQMTQSPSSLSASVGDRVTITCRARQSIGTAIHWYQQKPGKAPKLLIKYASESISGVPSRFSGSGSGTDFTLTISSLQPEDFATYYCQQSGSWPYTFGQGTKLEIKEPKSSDKTHTCPPCPAPEAAGGPSVFLFPPKPKDTLMISRTPEVTCVVVSVSHEDPEVKFNWYVDGVEVHNAKTKPREEQYNSTYRVVSVLTVLHQDWLNGKEYKCKVSNKALPAPIEKTISKAKGQPREPQVYVYPPSREEMTKNQVSLTCLVKGFYPSDIAVEWESNGQPENNYKTTPPVLDSDGSFALVSKLTVDKSRWQQGNVFSCSVMHEALHNHYTQKSLSLSPG
notes: DLL3 arm: DL3B279-Fab-Fc; CD3 arm: CD3W245-HL-scFv-Fc; IgG1 with L234A/L235A/D265S and heterodimerization mutations; also called CD3W245-HL-scFv; DL3B279-Fab
As for B5, the Kd in assay [5] was determined as 0.016 nM. Besides, in assay [6], the “Cytotoxicity (% Lysis), G361, whole PBMCs, 1:1 ET ratio, 30 nM” value was found to be 98.9%; the “Cytotoxicity (% Lysis), HCC1833, whole PBMCs, 1:1 ET ratio, 30 nM” value is 88.4%; the “Cytotoxicity (% Lysis), SHP-77, whole PBMCs, 1:1 ET ratio, 30 nM” value was 99.8%.

B6: DL3B572 (Fc fusion)
scFv: EVQLVQSGAEVKKPGASVKVSCKASGYTFTTYYIHWVRQAPGQGLEWMGIIDPSGGRTSYAQKFLGRVTMTRDTSTSTVYMELRSLRSEDTAVYYCARGGDGTWYYGMDVWGQGTTVTVSSGGSEGKSSGSGSESKSTGGSDIVMTQSPSFLSASVGDRVTITCRASQGISNYLAWYQQKPGKAPKLLIYAASTLQSGVPSRFSGSGSGTEFTLTISSLQPEDFATYYCQQLNSYPLTFGGGTKVEIK
notes: also called DL3B409 scFv-Fc; not shown: wild-type IgG1 Fc domain
B6 had a Kd in assay [1] of 2.32 nM. The binding result in assay [2] and in assay [3] was “no binding (tested: 1000 nM)” throughout.
